Measurements reported in publication doi:10.1101/2021.03.26.437179 (bioRxiv, 2021).

Experiments:
Experiment in all cases: pull-down
HIS-PUB26 = target: T1, HIS-PUB26 (Arabidopsis thaliana, UniProt Q9FXA4 1-421)
T1 sequence (looked up): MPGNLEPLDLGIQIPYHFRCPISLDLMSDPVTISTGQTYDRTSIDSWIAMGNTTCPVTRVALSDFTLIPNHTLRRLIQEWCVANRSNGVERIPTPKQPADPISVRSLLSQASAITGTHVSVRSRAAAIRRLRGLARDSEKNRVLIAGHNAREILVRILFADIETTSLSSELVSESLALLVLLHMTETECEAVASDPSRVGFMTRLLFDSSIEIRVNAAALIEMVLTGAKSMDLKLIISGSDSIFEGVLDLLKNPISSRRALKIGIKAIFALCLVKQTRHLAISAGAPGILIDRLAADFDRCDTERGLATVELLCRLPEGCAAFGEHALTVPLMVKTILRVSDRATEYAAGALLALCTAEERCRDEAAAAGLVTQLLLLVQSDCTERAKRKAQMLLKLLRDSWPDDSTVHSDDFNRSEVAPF

GST-PUB25 = target: T2, GST-PUB25 (Arabidopsis thaliana, UniProt Q9LT79 1-421)
T2 sequence (looked up): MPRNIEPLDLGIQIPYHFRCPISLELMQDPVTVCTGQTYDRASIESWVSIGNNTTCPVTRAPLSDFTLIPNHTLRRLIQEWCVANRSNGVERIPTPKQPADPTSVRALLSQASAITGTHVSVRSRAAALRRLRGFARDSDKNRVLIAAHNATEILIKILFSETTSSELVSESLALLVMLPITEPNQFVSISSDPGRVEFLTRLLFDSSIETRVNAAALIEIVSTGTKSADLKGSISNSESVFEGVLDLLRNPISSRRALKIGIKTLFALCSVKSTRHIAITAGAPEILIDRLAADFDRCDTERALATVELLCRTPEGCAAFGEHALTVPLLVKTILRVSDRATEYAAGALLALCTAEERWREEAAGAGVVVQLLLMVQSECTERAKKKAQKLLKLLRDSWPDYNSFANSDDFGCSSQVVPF

GST-PUB26 = target: T3, GST-PUB26 (Arabidopsis thaliana, UniProt Q9FXA4 1-421)
T3 sequence (looked up): T1 sequence (looked up)

Measured: binding result

B1: MBP-MYB6 (natural protein, Arabidopsis thaliana, UniProt Q38851 1-236, looked up)
chain: MGRSPCCEKAHTNKGAWTKEEDQRLVDYIRNHGEGCWRSLPKSAGLLRCGKSCRLRWINYLRPDLKRGNFTDDEDQIIIKLHSLLGNKWSLIAGRLPGRTDNEIKNYWNTHIKRKLLSHGIDPQTHRQINESKTVSSQVVVPIQNDAVEYSFSNLAVKPKTENSSDNGASTSGTTTDEDLRQNGECYYSDNSGHIKLNLDLTLGFGSWSGRIVGVGSSADSKPWCDPVMEARLSLL
binds: all assays above
